B1: Twister Ribozyme (parent)
chain: AACACUGCCAAUGCCGGUCCCAAGCCCGGAUAAAAGUGGAGGGGGCGG

Variants of: B1
Test: self-cleavage, relative activity (ratio to wild type); higher = more cleavage; co-transcriptional

Row | Variant | self-cleavage
1 | AACACUUCCAAUGCCGGUCCCAAGCCCGGAUAGAAGUGGAGGGGGCGG [G7U A33G] | 0.0484
2 | AACACUGCCAAUUCCGGUCCCAAGCCCGGAUAAAAGCGGAGGGGGCGG [G13U U37C] | 0.133
3 | AACACUGCCAAGGCCGGUCCCAAGCCCGGAAAAAAGUGGAGGGGGCGG [U12G U31A] | 0.746
4 | AACACUGCCAAUGCCGGUCCCAAGCGGGGAUAAAAGUGGAGGGGGCGG [C26G C27G] | 0.106
5 | AACACUGCCAAUGCGGGUCCCAAGCCCGGAUAAAAGUGGAGGGGCCGG [C15G G45C] | 0.0924
6 | AACACUGCCAAUGCCGGUCGCAGGCCCGGAUAAAAGUGGAGGGGGCGG [C20G A23G] | 0.0348
7 | ACCACUGCCAAUGCCGGUCCCAAGCCCGGAUAAAAGUGGAGCGGGCGG [A2C G42C] | 0.0693
8 | AACACUGCCAAUGGCGGUCCCAAGCCCGGAUAAAAGUGUAGGGGGCGG [C14G G39U] | 0.0771
9 | AACACUGCCAAUGCCGGUGCCAAACCCGGAUAAAAGUGGAGGGGGCGG [C19G G24A] | 0.0928
10 | AACACUGCCAAUCCCGGUCCCAAUCCCGGAUAAAAGUGGAGGGGGCGG [G13C G24U] | 0.0687
11 | AACACUACCAAUGCCGGUCCCAAGCCCGGAUAAAAGUGGAGGGGGCGG [G7A] | 0.615
12 | AACACUGCCAAAGCCGGUCCCAAGCCCGGAUAAAAGUGGCGGGGGCGG [U12A A40C] | 0.291
13 | AACACUGCCAAUGCCGGUCCCCACCCCGGAUAAAAGUGGAGGGGGCGG [A22C G24C] | 0.0817
14 | AACACUGCCUAUGCCGGUCACAAGCCCGGAUAAAAGUGGAGGGGGCGG [A10U C20A] | 0.168
15 | AACCCUGCCAAUGCUGGUCCCAAGCCCGGAUAAAAGUGGAGGGGGCGG [A4C C15U] | 0.271
16 | AGCACUGCCAAUGCCGGACCCAAGCCCGGAUAAAAGUGGAGGGGGCGG [A2G U18A] | 0.123
17 | AACACGGGCAAUGCCGGUCCCAAGCCCGGAUAAAAGUGGAGGGGGCGG [U6G C8G] | 0.2
18 | AACACUGCCAAUGGCGGUCCCAAGCGCGGAUAAAAGUGGAGGGGGCGG [C14G C26G] | 0.0666
19 | AACACUGCCAAUGCCGGUCCCAAGCCCCGCUAAAAGUGGAGGGGGCGG [G28C A30C] | 0.848
20 | AACACUGCCAAUGACGAUCCCAAGCCCGGAUAAAAGUGGAGGGGGCGG [C14A G17A] | 0.457
21 | AACACUGCCAAUGCCGGUCCCAAGCCGGGAUAAAAGUGGAGGGGGCAG [C27G G47A] | 0.0917
22 | AACACUGCCAAUGCCGGUCCCAAGCCGGGAUAAAAGUGGAGGGGGCCG [C27G G47C] | 0.0485
23 | AACACUGCCAAUGCCGGUCCCAAGCCUGGAUAAAAGAGGAGGGGGCGG [C27U U37A] | 0.444
24 | AACACUGCCAAUGCCGGUCCCAAGCCGGGAUAAAAGGGGAGGGGGCGG [C27G U37G] | 0.0978
25 | AACACUGCCAAUGCCGGUCCGAAGCCCGGACAAAAGUGGAGGGGGCGG [C21G U31C] | 0.0753
26 | AACACUGCCAAUGCGGGCCCCAAGCCCGGAUAAAAGUGGAGGGGGCGG [C15G U18C] | 0.048
27 | ACCACUGCCAAUGCCGGUCCCAAGCCCGGAUAGAAGUGGAGGGGGCGG [A2C A33G] | 0.107

Row | Variant | self-cleavage
28 | AAGACUGCCAAUGCCGGUCCCAAGCCCGGAUAAAAGGGGAGGGGGCGG [C3G U37G] | 0.478
29 | AACACUGCCAAUUCCGGUCCCAAGCCCGGAUAAAAGUGAAGGGGGCGG [G13U G39A] | 0.113
30 | AACACUGCCACUGCCGGUCCCAAGCCCGGAUAAAAGUGGAGGGCGCGG [A11C G44C] | 0.889
31 | AAUACUGCCAAUGCCGGUCCCAAGCCCGGAUAAAAGUGGAGGGGGAGG [C3U C46A] | 0.338
32 | AAAACUGCCAAUGCCGGUCCCAAGCCAGGAUAAAAGUGGAGGGGGCGG [C3A C27A] | 0.148
33 | AACACUGCCAAUGCCGGUCCCAAGCCCGGAUAAAAGUGGAGGGGGCCU [G47C G48U] | 0.4
34 | AACACUGCCAAUGCUGGUCCCAAGCCCGGAUAAAAGUGGUGGGGGCGG [C15U A40U] | 0.15
35 | AACACAGCCAAUGCCGUUCCCAAGCCCGGAUAAAAGUGGAGGGGGCGG [U6A G17U] | 0.101
36 | AACACUGCCAAUGCCGGUCCCAAGCCCGGAUACAAGUGGAGGGGGUGG [A33C C46U] | 0.961
37 | AACACUGCCAAUGCCGGUCCCAAGACCGGAUAAAAGUGGAGGAGGCGG [C25A G43A] | 0.0661
38 | AACACUGCCAAUGCCGGUCCCAAGCCCGGAUAAAAGUGGAGGGGUCAG [G45U G47A] | 0.771
39 | AACACUGCCAAUGCCGGUCCCGAGCCCAGAUAAAAGUGGAGGGGGCGG [A22G G28A] | 0.128
40 | AACCCUGCCAAUGCCGAUCCCAAGCCCGGAUAAAAGUGGAGGGGGCGG [A4C G17A] | 0.0548
41 | AACACUGCCAAUGCCGGUCCCAAGCCCGGAGAAAAGUGGAAGGGGCGG [U31G G41A] | 0.574
42 | AACACUGCCAAUGCCGGUCCCAAGCCCGGAUAAAAGUGGAGCGGGGGG [G42C C46G] | 0.465
43 | AACACGGCCAAUGCCGGUCCCAAGCCCGGAUAAAAGUAGAGGGGGCGG [U6G G38A] | 0.315
44 | AACUCUGCCAAUGCCGGUCCCAAGCCCGGAUAAAAGUGGAGGGGGAGG [A4U C46A] | 0.115
45 | AACACUGCCAAUGCCGGUCCCAAGCCCGGAUAAAAUUGAAGGGGGCGG [G36U G39A] | 0.172
46 | AAAACUGCCAAUGCCGGUCCCAAGCCCGGAUAAUAGUGGAGGGGGCGG [C3A A34U] | 0.252
47 | AACACUGCCAAUGCCGGUCCCAAGCCCGGAUAAAAGUAGAGGAGGCGG [G38A G43A] | 0.19
48 | AACACUGCCAUUGCCGGUCCCAUGCCCGGAUAAAAGUGGAGGGGGCGG [A11U A23U] | 0.765
49 | CACACUGCCAAUGCCGGUCCCAAGCCCGGAUAAAAUUGGAGGGGGCGG [A1C G36U] | 0.173
50 | AACACUGCCAAUGCCGGUGCCAAGCCCGGAUAAAGGUGGAGGGGGCGG [C19G A35G] | 0.0996
51 | AACACUGCCAAUGCCGGACCCAAGCCCGGAUAAAAGUGGAGGGGGUGG [U18A C46U] | 0.617
52 | AACACUGCCAAUGCCGCUCCCAAGCCCGGAUAAAAGUGGAGGGGCCGG [G17C G45C] | 0.0995
53 | AACACUGCCAAUGCCGGUCCCAAGCCCGGAUAAAAGUGCAGGGGGCGA [G39C G48A] | 0.138
54 | AACACUGCCUCUGCCGGUCCCAAGCCCGGAUAAAAGUGGAGGGGGCGG [A10U A11C] | 1.03
